Measured values taken from US20040229298A1.
Values joined by “and” are separate entries in the source; they are usually repeats but may differ in a detail not shown here. Equal values may be shown once. Ends that are not written are not given here.

Assays:
[1] = molecular target: GST-DLG2 PDZ domain 3 (human); experiment: Matrix/G assay ELISA, E6 peptide titrated on GST-PDZ
[2] = molecular target: GST-DLG3 PDZ domains 1-2 (human), Q92796; experiment: as above
[3] = molecular target: GST-MAGI1 PDZ domain 2 (human); experiment: as above
[4] = molecular target: GST-PSD95 PDZ domain 2 (human); experiment: as above
[5] = molecular target: GST-PSD95 PDZ domains 1-3 (human), P78352; experiment: as above
[6] = molecular target: GST-SAST1 PDZ domain (human), Q9Y2H9; experiment: as above
[7] = molecular target: GST-SAST2 PDZ domain 1 (human); experiment: as above
[8] = molecular target: GST-SIP1 PDZ domain 1 (human); experiment: as above
[9] = molecular target: GST-DLG2 PDZ domain 3 (human); experiment: G assay ELISA, E6 PL peptide titrated on constant GST-PDZ
[10] = molecular target: GST-DLG3 PDZ domains 1-2 (human), Q92796; experiment: as above
[11] = molecular target: GST-MAGI1 PDZ domain 2 (human); experiment: as above
[12] = molecular target: GST-PSD95 PDZ domain 2 (human); experiment: as above
[13] = molecular target: GST-PSD95 PDZ domains 1-3 (human), P78352; experiment: as above
[14] = molecular target: GST-SAST1 PDZ domain (human), Q9Y2H9; experiment: as above
[15] = molecular target: GST-SAST2 PDZ domain 1 (human); experiment: as above
[16] = molecular target: GST-SIP1 PDZ domain 1 (human); experiment: as above
[17] = molecular target: GST-TIP1 PDZ domain (human); experiment: as above
[18] = molecular target: GST-APXL1 PDZ domain 1 (human); experiment: G assay ELISA, 10 uM biotin peptide on anti-GST-captured GST-PDZ
[19] = molecular target: GST-CASK PDZ domain 1 (human); experiment: as above
[20] = molecular target: GST-ERBIN PDZ domain 1 (human); experiment: as above
[21] = molecular target: GST-FLJ11215 PDZ domain 1 (human); experiment: as above
[22] = molecular target: GST-INADL PDZ domain 4 (human); experiment: as above
[23] = molecular target: GST-KIAA0545 PDZ domain 1 (human); experiment: as above
[24] = molecular target: GST-KIAA0561 PDZ domain 1 (human); experiment: as above
[25] = molecular target: GST-KIAA0973 PDZ domain 1, clone #148.5 (human); experiment: as above
[26] = molecular target: GST-KIAA1719 PDZ domain 3 (human); experiment: as above
[27] = molecular target: GST-MAGI 1 PDZ domain 3 (human); experiment: as above
[28] = molecular target: GST-MAGI 1 PDZ domain 4 (human); experiment: as above
[29] = molecular target: GST-MUPP1 PDZ domain 13 (human); experiment: as above
[30] = molecular target: GST-TIAM 2 PDZ domain 1 (human); experiment: as above
[31] = molecular target: GST-ZO-1 PDZ domain 1 (human); experiment: as above

GST-DLG3 PDZ domains 1-2 (human), Q92796, sequence (Q92796 other isoform, or with tags, fused parts or gaps limits assumed): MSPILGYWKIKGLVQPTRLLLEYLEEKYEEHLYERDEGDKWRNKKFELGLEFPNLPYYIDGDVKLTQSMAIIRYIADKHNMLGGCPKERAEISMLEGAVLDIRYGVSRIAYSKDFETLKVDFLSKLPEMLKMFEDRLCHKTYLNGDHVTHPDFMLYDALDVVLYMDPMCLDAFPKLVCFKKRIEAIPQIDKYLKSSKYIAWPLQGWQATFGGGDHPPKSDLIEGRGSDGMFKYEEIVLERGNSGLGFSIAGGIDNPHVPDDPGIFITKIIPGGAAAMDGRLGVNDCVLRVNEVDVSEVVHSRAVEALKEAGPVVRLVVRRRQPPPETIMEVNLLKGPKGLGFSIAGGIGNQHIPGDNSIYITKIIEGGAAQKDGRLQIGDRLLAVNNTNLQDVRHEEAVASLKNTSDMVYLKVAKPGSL

Question: WTGRCMSCCRSSRTRRETQL (not fully specified; cysteine pairing not given here) [HPV16 E6 C-terminal PDZ ligand peptide (20 mer, biotinylated), P03126 139-158] was tested. Which EC50 [1] did it give?
Answer: Its EC50 is 1600 nM.

Question: And the EC50 [2]?
Answer: Its EC50 is 3800 nM.

Question: And the EC50 [3]?
Answer: The EC50 was 56 nM.

Question: And the EC50 [4]?
Answer: The EC50 was 6800 nM.

Question: And the EC50 [5]?
Answer: The EC50 was 1000 nM.

Question: What about the EC50 [6] of the same binder?
Answer: The EC50 was 580 nM.

Question: And the EC50 [7]?
Answer: The EC50 was 1200 nM.

Question: And the EC50 [8]?
Answer: Its EC50 is 7500 nM.

Question: And the EC50 [9]?
Answer: The EC50 was 1600 nM.

Question: What about the EC50 [10] of the same binder?
Answer: The EC50 was 3800 nM.

Question: And the EC50 [11]?
Answer: Its EC50 is 56 nM.

Question: And the EC50 [12]?
Answer: Its EC50 is 6800 nM.

Question: And the EC50 [13]?
Answer: Its EC50 is 1000 nM.

Question: What about the EC50 [14] of the same binder?
Answer: Its EC50 is 580 nM.

Question: What about the EC50 [15] of the same binder?
Answer: The EC50 was 1200 nM.

Question: What about the EC50 [16] of the same binder?
Answer: Its EC50 is 7500 nM.

Question: And the EC50 [17]?
Answer: Its EC50 is 750 nM.

Question: What about the Ave OD [18] of the same binder?
Answer: The Ave OD was 0.461 A450 nm.

Question: And the OD S/N (ratio to GST only well) [18]?
Answer: Its OD S/N (ratio to GST only well) is 3.14.

Question: And the Ave OD [19]?
Answer: The Ave OD was 0.36 A450 nm.

Question: What about the OD S/N (ratio to GST only well) [19] of the same binder?
Answer: Its OD S/N (ratio to GST only well) is 1.15.

Question: And the Ave OD [20]?
Answer: Its Ave OD is 0.36 A450 nm and 0.342 A450 nm.

Question: What about the OD S/N (ratio to GST only well) [20] of the same binder?
Answer: The OD S/N (ratio to GST only well) was 1.82 and 1.3.

Question: What about the Ave OD [21] of the same binder?
Answer: The Ave OD was 0.449 A450 nm.

Question: What about the OD S/N (ratio to GST only well) [21] of the same binder?
Answer: Its OD S/N (ratio to GST only well) is 2.77.

Question: And the Ave OD [22]?
Answer: Its Ave OD is 0.357 A450 nm.

Question: And the OD S/N (ratio to GST only well) [22]?
Answer: The OD S/N (ratio to GST only well) was 2.15.

Question: And the Ave OD [23]?
Answer: Its Ave OD is 0.44 A450 nm.

Question: And the OD S/N (ratio to GST only well) [23]?
Answer: Its OD S/N (ratio to GST only well) is 3.96.

Question: What about the Ave OD [24] of the same binder?
Answer: Its Ave OD is 0.347 A450 nm.

Question: And the OD S/N (ratio to GST only well) [24]?
Answer: The OD S/N (ratio to GST only well) was 2.44.

Question: And the Ave OD [25]?
Answer: Its Ave OD is 0.378 A450 nm.

Question: What about the OD S/N (ratio to GST only well) [25] of the same binder?
Answer: The OD S/N (ratio to GST only well) was 1.68.

Question: And the Ave OD [26]?
Answer: The Ave OD was 0.346 A450 nm.

Question: What about the OD S/N (ratio to GST only well) [26] of the same binder?
Answer: Its OD S/N (ratio to GST only well) is 1.65.

Question: What about the Ave OD [27] of the same binder?
Answer: Its Ave OD is 0.354 A450 nm.

Question: And the OD S/N (ratio to GST only well) [27]?
Answer: Its OD S/N (ratio to GST only well) is 1.46.

Question: And the Ave OD [28]?
Answer: The Ave OD was 0.395 A450 nm.

Question: What about the OD S/N (ratio to GST only well) [28] of the same binder?
Answer: The OD S/N (ratio to GST only well) was 1.2.

Question: What about the Ave OD [29] of the same binder?
Answer: Its Ave OD is 0.435 A450 nm and 0.411 A450 nm.

Question: What about the OD S/N (ratio to GST only well) [29] of the same binder?
Answer: The OD S/N (ratio to GST only well) was 1.56 and 1.75.

Question: And the Ave OD [30]?
Answer: The Ave OD was 0.356 A450 nm.

Question: What about the OD S/N (ratio to GST only well) [30] of the same binder?
Answer: The OD S/N (ratio to GST only well) was 2.05.

Question: And the Ave OD [31]?
Answer: The Ave OD was 0.412 A450 nm.

Question: What about the OD S/N (ratio to GST only well) [31] of the same binder?
Answer: The OD S/N (ratio to GST only well) was 1.83.
